In the RNAGym collection of RNA variant scans (doi:10.7554/elife.80360):

B1: CPEB3 Ribozyme (parent)
chain: GGGGGCCACAGCAGAAGCGUUCACGUCGCGGCCCCUGUCAGAUUCUGGUGAAUCUGCGAAUUCUGCUGU

Variants of: B1
Test: self-cleavage, relative activity (ratio to wild type); higher = more cleavage; co-transcriptional
A42U A51U gave a self-cleavage of 0.914.
Work on A42U A51C yielded a self-cleavage of 0.839.
Work on G41U U44A yielded a self-cleavage of 0.339.
G41U U44G gave a self-cleavage of 0.336.
With A40U U44C the self-cleavage was 0.262.
With A40U U44G the self-cleavage was 0.623.
In the case of G41A C54G, the self-cleavage is reported as 0.861.
In the case of G41A C54U, the self-cleavage is reported as 0.961.
For G41C C45G, the self-cleavage was 0.38.
Work on G41C C45U yielded a self-cleavage of 0.501.
For G41C C45A, the self-cleavage was 0.34.
Work on A42C U69C yielded a self-cleavage of 1.05.
A42C U69G showed a self-cleavage of 1.01.
A42C U69A gave a self-cleavage of 1.02.
Variant G41A G65U has a self-cleavage of 0.379.
G41A G65C gave a self-cleavage of 0.261.
For G41C C57U, the self-cleavage was 0.329.
Variant A42U U43A has a self-cleavage of 0.914.
A42C G58C showed a self-cleavage of 1.04.
For G41U G56A, the self-cleavage was 0.581.
A42G A60G showed a self-cleavage of 0.85.
Work on G41A G68C yielded a self-cleavage of 0.881.
Variant G41A G68U has a self-cleavage of 0.913.
For A42U U53G, the self-cleavage was 1.
In the case of A42U U53A, the self-cleavage is reported as 1.02.
With A42G U49C the self-cleavage was 0.901.
A42G U49G gave a self-cleavage of 0.96.
For A42G U49A, the self-cleavage was 0.938.
In the case of A42C C57G, the self-cleavage is reported as 0.342.
For A42C C57U, the self-cleavage was 0.376.
Variant A42C C57A has a self-cleavage of 0.398.
G41C U53C gave a self-cleavage of 0.283.
G41C U53A gave a self-cleavage of 0.463.
A42C C63G gave a self-cleavage of 0.542.
A42C C63A gave a self-cleavage of 0.547.
With G41C G68U the self-cleavage was 0.933.
Work on G41C G68A yielded a self-cleavage of 0.927.
G41C G68C showed a self-cleavage of 0.902.
In the case of A42U G65U, the self-cleavage is reported as 0.481.
Work on A42U G65C yielded a self-cleavage of 0.433.
With A42U G65A the self-cleavage was 0.661.
A42C U64G gave a self-cleavage of 0.769.
A42C U64A gave a self-cleavage of 0.625.
Variant G41U A51U has a self-cleavage of 0.609.
For G41U A51G, the self-cleavage was 0.837.
With A40U U46G the self-cleavage was 0.878.
With A40U U46C the self-cleavage was 0.716.
With A40U U46A the self-cleavage was 0.919.
Work on G41U U43C yielded a self-cleavage of 0.357.
With G41U U43G the self-cleavage was 0.267.
With G41U U43A the self-cleavage was 0.3.
Work on A42G G58C yielded a self-cleavage of 0.894.
A42G G58A gave a self-cleavage of 0.951.
Work on G41U U53C yielded a self-cleavage of 0.364.
For G41U U53G, the self-cleavage was 0.604.
A42U U55A gave a self-cleavage of 0.485.
Variant A42C G68C has a self-cleavage of 0.963.
In the case of A42C G68U, the self-cleavage is reported as 1.01.
Variant A42C G68A has a self-cleavage of 1.
With G41U C66A the self-cleavage was 0.441.
Variant G41U C66G has a self-cleavage of 0.428.
In the case of A42C G50A, the self-cleavage is reported as 0.952.
Variant A42C G50C has a self-cleavage of 0.858.
Variant G41A C66G has a self-cleavage of 0.429.
In the case of G41A G50A, the self-cleavage is reported as 0.707.
For A40U U62A, the self-cleavage was 0.436.
With A40U U62C the self-cleavage was 0.351.
A40U U62G gave a self-cleavage of 0.426.
For A42G G56C, the self-cleavage was 0.475.
In the case of A42G G56A, the self-cleavage is reported as 0.761.
A42G U43A gave a self-cleavage of 0.853.
With A42G U43G the self-cleavage was 0.565.
A42G U43C gave a self-cleavage of 0.935.
Work on A40U G56A yielded a self-cleavage of 0.818.
In the case of G41U U61A, the self-cleavage is reported as 0.64.
G41U U61C gave a self-cleavage of 0.402.
With G41U U61G the self-cleavage was 0.314.
In the case of G41U C45A, the self-cleavage is reported as 0.422.
For G41U C45G, the self-cleavage was 0.47.
Variant A42U U44A has a self-cleavage of 0.898.
For A40U U53C, the self-cleavage was 0.296.
With G41C U61C the self-cleavage was 0.241.
With G41C U61G the self-cleavage was 0.345.
A42G U69G showed a self-cleavage of 1.03.
A42G U69C gave a self-cleavage of 1.04.
In the case of A40U U43A, the self-cleavage is reported as 0.306.
A40U U43C showed a self-cleavage of 0.485.
For A42U C66A, the self-cleavage was 0.461.
Work on A42U C66U yielded a self-cleavage of 0.876.
For G41A C57G, the self-cleavage was 0.299.
With G41A C57U the self-cleavage was 0.368.
For G41A C57A, the self-cleavage was 0.283.
In the case of A42U G68A, the self-cleavage is reported as 0.956.
G41A U49G showed a self-cleavage of 0.859.
G41A U49C showed a self-cleavage of 0.825.
Variant G41C G56U has a self-cleavage of 0.369.
In the case of G41C G56A, the self-cleavage is reported as 0.667.
With A42C A60U the self-cleavage was 0.459.
With G41C U46A the self-cleavage was 0.921.
For A42C C54G, the self-cleavage was 0.73.
Work on A42C U44A yielded a self-cleavage of 0.83.
Variant A42C U44C has a self-cleavage of 0.736.
For A42C U44G, the self-cleavage was 0.816.
In the case of G41U G65U, the self-cleavage is reported as 0.366.
Variant G41U G65A has a self-cleavage of 0.438.
For G41C A60G, the self-cleavage was 0.304.
G41C A60C showed a self-cleavage of 0.262.
G41C A60U gave a self-cleavage of 0.366.
In the case of G41A A42C, the self-cleavage is reported as 0.588.
Variant G41A A42G has a self-cleavage of 0.855.
With G41A A59C the self-cleavage was 0.358.
With A40U U64A the self-cleavage was 0.435.
Work on A40U U64G yielded a self-cleavage of 0.598.
G41U U64A gave a self-cleavage of 0.501.
G41U U64C showed a self-cleavage of 0.382.
Variant G41U U64G has a self-cleavage of 0.441.
For G41C U44G, the self-cleavage was 0.317.
In the case of G41C U44A, the self-cleavage is reported as 0.377.
Work on G41C U44C yielded a self-cleavage of 0.342.
A42G G50U gave a self-cleavage of 0.887.
G41U C54U showed a self-cleavage of 0.94.
G41U C54G showed a self-cleavage of 0.95.
Variant G41U C54A has a self-cleavage of 0.972.
G41A A60U gave a self-cleavage of 0.278.
G41A A60C showed a self-cleavage of 0.295.
For A42C A52C, the self-cleavage was 0.803.
A42C A52G showed a self-cleavage of 0.919.
Variant A42C A52U has a self-cleavage of 0.96.
For A42G U53G, the self-cleavage was 0.801.
In the case of A42G U53A, the self-cleavage is reported as 0.895.
In the case of G41A U44G, the self-cleavage is reported as 0.307.
A42U G50C gave a self-cleavage of 0.809.
For A42U G50U, the self-cleavage was 0.937.
A42G A51C showed a self-cleavage of 0.672.
A42G A51U showed a self-cleavage of 0.799.
With G41A G48A the self-cleavage was 0.989.
Variant A40U G65C has a self-cleavage of 0.304.
Work on A40U G65A yielded a self-cleavage of 0.352.
For A40U G65U, the self-cleavage was 0.405.
A40U G50C gave a self-cleavage of 0.643.
With A40U G50A the self-cleavage was 0.731.
In the case of A42G C66U, the self-cleavage is reported as 0.93.
Work on A42G C66G yielded a self-cleavage of 0.622.
A42G C66A showed a self-cleavage of 0.558.
With A42C U49A the self-cleavage was 0.974.
A42C U49G showed a self-cleavage of 0.964.
With G41A C45U the self-cleavage was 0.677.
G41A U55G showed a self-cleavage of 0.379.
In the case of G41A U55A, the self-cleavage is reported as 0.596.
For A40U G47C, the self-cleavage was 0.88.
G41C C63A gave a self-cleavage of 0.296.
Variant G41A C63G has a self-cleavage of 0.348.
In the case of G41A C63U, the self-cleavage is reported as 0.59.
Variant A42G A59G has a self-cleavage of 0.81.
In the case of A42G A59U, the self-cleavage is reported as 0.735.
Variant A42G A59C has a self-cleavage of 0.577.
Work on G41A U67A yielded a self-cleavage of 0.756.
For G41A U67G, the self-cleavage was 0.777.
For A42C G65A, the self-cleavage was 0.627.
A42C G47A gave a self-cleavage of 0.921.
Work on A42U A59G yielded a self-cleavage of 0.965.
G41A G47C gave a self-cleavage of 0.913.
A42G G65C gave a self-cleavage of 0.508.
Variant A42G G65U has a self-cleavage of 0.605.
In the case of A42G G65A, the self-cleavage is reported as 0.639.
G41U U69A gave a self-cleavage of 0.995.
With G41U U69G the self-cleavage was 1.02.
